Measurements published in US20230015291.

Molecular target: rabbit skeletal muscle actin protein (Cytoskeleton, Denver, Colo., Catalog #AKL99-A), P68135

B1: recombinant wild-type human DNase1 (protein)
chain: LKIAAFNIQTFGETKMSNATLVSYIVQILSRYDIALVQEVRDSHLTAVGKLLDNLNQDAPDTYHYVVSEPLGRNSYKERYLFVYRPDQVSAVDSYYYDDGCEPCGNDTFNREPAIVRFFSRFTEVREFAIVPLHAAPGDAVAEIDALYDVYLDVQEKWGLEDVMLMGDFNAGCSYVRPSQWSSIRLWTSPTFQWLIPDSADTTATPTHCAYDRIVVAGMLLRGAVVPDSALPFNFQAAYGLSDQLAQAISDHYPVEVMLK
nuclease activity, SYTOX Green fluorescence assay (RFU over time), 4.5 nM enzyme with or without 40 ug/ml actin: The nuclease activity of the recombinant human DNase1 was inhibited by actin
